Experimental data: patent publication US20050287636

How the values were obtained:
[1] = biological target: proapoA-I-V156K
[2] = biological target: proapoA-I-D157K
[3] = biological target: wild-type (WT) proapoA-I
[4] = biological target: proapoA-I-H155E
[5] = biological target: proapoA-I-A158E
[6] = biological target: proapoA-I-A154E
Chain of proapoA-I-A154E (chain, as listed by the source A154E): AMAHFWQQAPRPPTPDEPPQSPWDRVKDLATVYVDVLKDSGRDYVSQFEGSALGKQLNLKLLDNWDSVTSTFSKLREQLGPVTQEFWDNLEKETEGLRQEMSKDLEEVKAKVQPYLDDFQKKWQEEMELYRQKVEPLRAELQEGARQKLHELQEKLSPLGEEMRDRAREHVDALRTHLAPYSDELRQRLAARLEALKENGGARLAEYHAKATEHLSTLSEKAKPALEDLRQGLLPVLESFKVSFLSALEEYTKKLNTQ

Chain of proapoA-I-H155E (chain, as listed by the source H155E): as the sequence (chain, as listed by the source A154E) above, with E169A, H170E counted along it
Chain of wild-type (WT) proapoA-I (chain, as listed by the source): as the sequence (chain, as listed by the source A154E) above, with E169A counted along it
Chain of proapoA-I-V156K (chain, as listed by the source V156K): as the sequence (chain, as listed by the source A154E) above, with E169A, V171K counted along it
Chain of proapoA-I-A158E (chain, as listed by the source A158E): as the sequence (chain, as listed by the source A154E) above, with E169A, A173E counted along it
Chain of proapoA-I-D157K (chain, as listed by the source D157K): as the sequence (chain, as listed by the source A154E) above, with E169A, D172K counted along it

B1: LCAT (lecitin:cholesterol acyltransferase) (protein)
chain: FWLLNVLFPPHTTPKAELSNHTRPVILVPGCLGNQLEAKLDKPDVVNWMCYRKTEDFFTIWLDLNMFLPLGVDCWIDNTRVVYNRSSGLVSNAPGVQIRVPGFGKTYSVEYLDSSKLAGYLHTLVQNLVNNGYVRDETVRAAPYDWRLEPGQQEEYYRKLAGLVEEMHAAYGKPVFLIGHSLGCLHLLYFLLRQPQAWKDRFIDGFISLGAPWGGSIKPMLVLASGDNQGIPIMSSIKLKEEQRITTTSPWMFPSRMAWPEDHVFISTPSFNYTGRDFQRFFADLHFEEGWYMWLQSRDLLAGLPAPGVEVYCLYGVGLPTPRTYIYDHGFPYTDPVGVLYEDGDDTVATRSTELCGLWQGRQPQPVHLLPLHGIQHLNMVFSNLTLEHINAILLGAYRQGPPASPTASPEPPPPE
Apparent Vmax (LCAT activation by POPC-rHDL) [1]: 0.3 | Apparent Vmax (LCAT activation by POPC-rHDL) [2]: 1.8 | Apparent Vmax (LCAT activation by POPC-rHDL) [3]: 3.3 | Apparent Vmax (LCAT activation by POPC-rHDL) [4]: 2.6 | Apparent Vmax (LCAT activation by POPC-rHDL) [5]: 0.5 | Apparent Vmax (LCAT activation by POPC-rHDL) [6]: 3.5
